Publication PMC9363494, “C-terminal truncation modulates α-Synuclein’s cytotoxicity and aggregation by promoting the interactions with membrane and chaperone” (Communications Biology, 2022)

Target: T1, C-terminally truncated α-synuclein (residues 1-99) (UniProt P37840 1-99)
T1 construct: α-synuclein with a deletion of the C-terminus, amino acids 1-99; Uniformly 15N-enriched for the NMR experiments; also called CT-α-syn; source: E. coli BL21 (DE3), purified (SP cation exchange, Superdex 75)
Test: NMR titration; 1H-15N HSQC of 0.3 mM 15N-enriched FL- or CT-α-syn titrated with PDI (mole ratios 10:1 to 1:1, 0-300 μM PDI); 20 mM HEPES, 100 mM NaCl, 5 mM TCEP, pH 7.0, 10% D2O, 15 °C; KD from fits of the average CSPs of residues in segment 1 and in segment 2
Details: both partners purified

- KD of segment 1: ~40 µM
- KD of segment 2: ~400 µM
B1: protein disulfide isomerase (enzyme)
chain: not shown
notes: human protein disulfide isomerase (PDI); the human PDI gene cloned into pET-28a; The vector has a TEV protease cleavage site after the His6-tag; no cleavage step is described; also called PDI; source: E. coli BL21 (DE3), purified (HisTrap, Resource Q, Superdex 200)
